We go through 1 molecule from patent publication US11395853B2, “Biomimetic drug delivery of an immunomodulatory agent for the treatment of ocular conditions” (University of Pittsburgh-Of the Commonwealth System of …, priority 2016, dated 2022).

The subject of assay [1] is ConA-induced DED mice. In words: Aqueous tear production, phenol red cotton thread, ConA-induced DED (Example 1). The following applies: one week after ConA into lacrimal gland; MPs 0.5 mg/20 μl co-injected with ConA; soluble CCL22 2.5 μg in 20 μl; anti-GITR 500 μg i.p. 5 days prior. Format: in vivo, Balb/c mice. As to the method:
(§1) Fabrication of Microparticles—Poly (lactic-co-glycolic) acid (PLGA) microparticles encapsulating recombinant mouse CCL22 (R&D Systems, Minneapolis Minn.) were made according to a previously reported water-oil-water double emulsion technique. Glowacki, A. J. et al. Proc. Natl. Acad. Sci. U.S.A 110, 18525-30 (2013). Briefly, 200 mg of RG502H poly(D,L-lactide-co-glycolide) polymer (Sigma Aldrich, St. Louis, Mo.) was dissolved in 4 ml of dichloromethane and vortexed. Then […], of an aqueous solution containing 5 μg of recombinant mouse CCL22 and 2 mg of BSA (Sigma Aldrich, St. Louis, Mo.) with […] NaCl was pipetted into the mixture of polymer and dichloromethane. […] Release media (supernatant) was sampled periodically and CCL22 concentrations were quantified using an enzyme-linked immunosorbent assay (ELISA) (R&D Systems, Minneapolis, Minn.). […] Measurement of Tear Production—Aqueous tear production was measured with phenol red cotton threads (Oasis Medical, San Dimas, Calif.). Thread was placed in the lateral canthus of the eye for a period of 60 seconds, and wetting was measured in millimeters using a dissecting microscope (Olympus SZX10, Waltham, Mass.). […] The surface of the cornea was evaluated using a dissecting microscope with a fluorescent excitation lamp (Olympus SZX10, Waltham, Mass.). […]

Assay [2] relates to ConA-induced DED mice. Nature of the assay: Corneal permeability, corneal fluorescein staining score, ConA-induced DED (Example 1). Format: in vivo, Balb/c mice. The following applies: one week after ConA into lacrimal gland; MPs or soluble CCL22 co-injected with ConA; anti-GITR 500 μg i.p. 5 days prior. As to the method:
as §1

B1: Soluble CCL22: recombinant mouse CCL22 chemokine injected in solution with ConA at 2.5 μg in 20 μl (protein, UniProt O88430 25-92, looked up)
C-C motif chemokine 22: GPYGANVEDSICCQDYIRHPLPSRLVKEFFWTSKSCRKPGVVLITVKNRDICADPRQVWVKKLLHKLS
Take B1: in assay [1], the aqueous tear production entry is on record as “unable to prevent loss of tear production”. Moreover, in assay [2], the “corneal fluorescein staining (corneal permeability)” value is reported as “central punctate fluorescein staining was observed”.
